Reference: paper doi:10.1101/2024.12.23.630085, “Accurate sequence-to-affinity models for SH2 domains from multi-round peptide binding assays coupled with free-energy regression” (bioRxiv, 2025)
Non-standard residues stand in square brackets, D forms with d. No end group written: not given here. *: point of attachment. FITC = O=C1OC2(c3ccc(O)cc3Oc3cc(O)ccc32)c2ccc(NC(=S)*)cc21; pY = N[C@@H](Cc1ccc(OP(=O)(O)O)cc1)C(=O)O; Ahx = NCCCCCC(=O)O

Legend:
Test in all cases: fluorescence polarisation; competition mode: unlabelled phosphopeptide competes with a FITC-labelled probe phosphopeptide for the purified SH2 domain; probe KD first measured in direct mode; as described in ref. 33
Conditions in all cases: both partners purified
Lyn SH2 domain (121-228) = molecular target: T1, Lyn SH2 domain (121-228) (human, UniProt P07948 121-228, biotin on the AviTag)
T1 construct: source: E. coli C43(DE3) with BirA helper plasmid, purified (HisTrap, HiTrap Q, Superdex 75); not shown: His6-SUMO, N-terminal, cleaved; AviTag, C-terminal, kept
T1 sequence (P07948 121-228): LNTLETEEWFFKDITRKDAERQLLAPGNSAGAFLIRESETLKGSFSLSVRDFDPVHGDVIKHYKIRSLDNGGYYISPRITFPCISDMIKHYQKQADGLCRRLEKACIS

Fyn SH2 domain (142-248) = molecular target: T2, Fyn SH2 domain (142-248) (human, UniProt P06241 142-248, biotin on the AviTag)
T2 construct: human Fyn kinase, SH2 domain, residues 142-248; source: E. coli C43(DE3) with BirA helper plasmid, purified (HisTrap, HiTrap Q, Superdex 75); not shown: His6-SUMO, N-terminal, cleaved; AviTag, C-terminal, kept
T2 sequence (P06241 142-248): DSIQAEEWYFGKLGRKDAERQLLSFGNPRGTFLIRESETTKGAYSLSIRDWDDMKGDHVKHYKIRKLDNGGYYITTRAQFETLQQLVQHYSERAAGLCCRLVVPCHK

Blk SH2 domain (116-222) = molecular target: T3, Blk SH2 domain (116-222) (human, UniProt P51451 116-222, biotin on the AviTag)
T3 construct: human Blk kinase, SH2 domain, residues 116-222; source: E. coli C43(DE3) with BirA helper plasmid, purified (HisTrap, HiTrap Q, Superdex 75); not shown: His6-SUMO, N-terminal, cleaved; AviTag, C-terminal, kept
T3 sequence (P51451 116-222): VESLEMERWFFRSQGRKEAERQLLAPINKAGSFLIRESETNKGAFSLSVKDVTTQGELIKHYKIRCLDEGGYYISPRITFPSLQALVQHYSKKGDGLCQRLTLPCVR

Yes SH2 domain (150-257) = molecular target: T4, Yes SH2 domain (150-257) (human, UniProt P07947 150-257, biotin on the AviTag)
T4 construct: human Yes kinase, SH2 domain, residues 150-257; source: E. coli C43(DE3) with BirA helper plasmid, purified (HisTrap, HiTrap Q, Superdex 75); not shown: His6-SUMO, N-terminal, cleaved; AviTag, C-terminal, kept
T4 sequence (P07947 150-257): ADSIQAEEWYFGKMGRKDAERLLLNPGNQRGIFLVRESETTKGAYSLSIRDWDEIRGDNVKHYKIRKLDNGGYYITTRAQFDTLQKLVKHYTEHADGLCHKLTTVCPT

Measured: binding result

B1: FITC-Ahx-GDG(pY)EEISPLLL (peptide)
peptide: {FITC-Ahx}-GDG[pY]EEISPLLL
notes: c-Src SH2 consensus peptide; the Y is phosphotyrosine; also called c-Src SH2 consensus; probe; source: synthetic peptide (SynPeptide, China)
binds: all assays above
